Columns and labels:
[1] = tested on: HeLa cells; assay: Evaluation of cellular uptake of ibuprofen conjugate (confocal fluorescence); type: cell-based; settings: 10 μM, 37° C., 30 min, confocal laser scanning microscope
Method: HeLa cells were cultured at 37° C. in wet air containing 5% CO2 in a DMEM (high-glucose Dulbecco's Modified Eagle's Medium) containing penicillin-added 10% (v/v) FBS (fetal bovine serum). Subculturing was performed every 2 to 3 days until the cells became subconfluent.
HeLa cells (1×10^5 cells per well) were seeded on a 35 mm coverglass dish (SPL Ltd., Korea) and cultured for 24 hr, after which the medium was removed, and the HeLa cells were washed with cold PBS (×1) (Dulbecco's phosphate buffered saline, pH 7.4). The resulting cells were cultured at 37° C. for 30 min in 3 ml of DMEM containing 10 μM Compound 8 or 10 μM Compound 9, after which the medium was removed, and the HeLa cells were washed five times with cold PBS. The intracellular internalization and intracellular localization of the compound were investigated through fluorescence, achieved using fluorescein, using a confocal laser scanning microscope (Olympus Fluoview FV1000, N.A. 1.30, 40×, planApo, oil immersion lens). The fluorescence of FITC was analyzed at an excitation wavelength of 488 nm and an emission wavelength of 500 to 530 nm, and all experiments were performed three times.

[2] = Plasma stability test (HPLC); type: in vitro ADME; settings: human plasma, 37° C.
Method: In order to evaluate plasma stability, a homogeneous solution of Compound 8 ([…]) was prepared. An aliquot thereof was injected into the plasma (human, Sigma, USA) so as to reach a final concentration of 50 μg/ml, followed by vortexing and culturing at 37° C. for 0, 3, 6, 9, 12, 15, 18, 21 and 24 hr. The plasma solution (200 μl) was then mixed with 1 ml of MeOH to prevent hydrolysis of Compound 8. This solution was added with biotin (internal standard) in distilled water (100 μl, 5 μg/ml) and centrifuged at 2000 rpm for 10 min. The supernatant was collected and dried in air. The residue was dissolved in distilled water (2 ml) and centrifuged at 2000 rpm for 10 min. The supernatant thus obtained was analyzed using HPLC through the following method.
10 μl of the clean supernatant obtained through the above method was introduced into the HPLC system. The UV detector was set at 260 nm and the flow rate was 1.0 ml/min for a running time of 10 to 15 min. The isocratic mobile phase system consisted of MeOH/H2O (30/70), and the column oven was maintained at 37° C. using a C18-column (Agilent, ZORBAX, 4.6×250 mm, 5 μm).
HPLC chromatograms were obtained at each interval, and the remaining amount of Compound 8 was calculated and expressed as a percentage by subtracting the concentration of ibuprofen, released based on the area under the curve, from the sum of the initial concentration of Compound 8 and the internal standard.

[3] = In-vivo distribution in mouse tissue (fluorescence imaging of tissue flakes); settings: 94.6 mg kg^−1 intraperitoneal, after 20 min
Method: After 20 min, the mice administered with the above solution were perfused with PBS (pH 7.4) containing paraformaldehyde (4%), and the main organs (brain, heart, lungs, kidneys, spleen and liver) thereof were cultured overnight in PBS (phosphate buffered saline) containing sucrose (0.5 M). A cryoprotectant was added thereto and the above tissue was cut into 15 μm flakes using a cryostat, transferred to a coated slide glass and then dried. Each flake was washed with PBS, treated with Triton X-100 (0.3%) at room temperature for 15 min, and analyzed using an Axioplan2 fluorescence imaging microscope. As a control, deionized water (500 μl) was injected into other mice, and the same procedures as above were performed, after which the compound represented by green fluorescence of FITC in each tissue was compared with autofluorescence of the control.

Row | Compound | cellular uptake / intracellular FITC fluorescence [1] | hydrolysis relative to the initial time (0 hr) ([2]; 50 μg/ml, after culture for 3 hr) | decrease of the amount remaining ([2]; 50 μg/ml, next culture time of 21 hr (3 to 24 hr)) [%] | half-life and stability in the plasma (in words) ([2]; up to 24 hr) | distribution in brain (green fluorescence of FITC) [3]
1 | CC(C)Cc1ccc(C(C)C(=O)NCC(=O)OC[C@H](OC(=O)CCCCCN(CCCNC(=N)N)CCCNC(=N)N)[C@@H](OC(=O)CCCCCN(CCCNC(=N)N)CCCNC(=N)N)[C@H](OC(=O)CCCCCN(CCCNC(=N)N)CCCNC(=N)N)[C@@H](COC(=O)CCCCCNC(=S)Nc2ccc3c(c2)C(=O)OC32c3ccc(O)cc3Oc3cc(O)ccc32)OC(=O)CCCCCN(CCCNC(=N)N)CCCNC(=N)N)cc1.Cl.Cl.Cl.Cl.Cl.Cl.Cl.Cl (stereo partly drawn) [Compound 8, 1-O-(2-aminoacetoxy-ibuprofen)-2,3,4,5-tetra-O—[N-{bis-(3-guanidinopropyl)}-6-aminohexanoyl]-6-O-[6-(fluoresceinyl-5-thioureido)-hexanoyl]-D-sorbitol 8HCl] | strong green fluorescence that is predominant in the cytoplasm | about 5% | ~8 | long half-life and considerable stability | 
2 | fluoresceinyl (S)-2-(2-(4-isobutylphenyl)propanamido)-acetate [Compound 9] | did not show fluorescence in the cells |  |  |  | not distributed in the brain

Reference: patent publication US10500174B2, “Pharmaceutical composition for preventing or treating degenerative brain disease” (SOONCHUNHYANG UNIVERSITY INDUSTRY ACADEMY COOPERATION …, priority 2016, dated 2019)
